Data published in article PMC5761276 (Journal of the American Chemical Society, 2017).

What was measured:
[1] = target: T1, Grb2-Alexa Fluor 647 (UniProt P62993 1-217, Alexa Fluor 647 (site not stated)); assay: single-molecule dwell time analysis
[2] = target: T1, Grb2-Alexa Fluor 647; assay: ITC

Row | koff [1] [s⁻¹] | Kd [2] [µM] | Binder
1 | 1.4 | 0.459 | LAT-FFFY (monovalent LAT1Y, residue 48-233), phosphorylated (domain or fragment, phosphotyrosine at Y226; Alexa Fluor 568 (site not stated)) GIQFKRPHTVAPWPPAFPPVTSFPPLSQPDLLPIPRSPQPLGGSHRTPSSRRDSDGANSVASFENEEPACEDADEDEDDFHNPGFLVVLPDSTPATSTAAPSAPALSTPGIRDSAFSMESIDDFVNVPESGESAEASLDGSREFVNVSQELHPGAAKTEPAALSSQEAEEVEEEGAPDYENLQELN
2 | 3.3 | 0.195 | LAT-FFYF (monovalent LAT1Y, residue 48-233), phosphorylated (domain or fragment, phosphotyrosine at Y191; Alexa Fluor 568 (site not stated)) GIQFKRPHTVAPWPPAFPPVTSFPPLSQPDLLPIPRSPQPLGGSHRTPSSRRDSDGANSVASFENEEPACEDADEDEDDFHNPGFLVVLPDSTPATSTAAPSAPALSTPGIRDSAFSMESIDDFVNVPESGESAEASLDGSREYVNVSQELHPGAAKTEPAALSSQEAEEVEEEGAPDFENLQELN
